The record followed here is publication PMC8505397, “Development of peptides targeting receptor binding site of the envelope glycoprotein to contain the West Nile virus infection” (Scientific Reports, 2021).

Common to all, as to assay: ELISA; peptides covalently coated through their C-terminus in Nunc CovaLink NH plates (EDC plus sulfo-NHS), blocked with 0.5% BSA in PBS, incubated with rDIII, detected with HisProbe-HRP; negative control (no rDIII) subtracted
Settings in all cases: both partners purified
A general note: An ELISA detects its analyte on a solid surface through an enzyme-linked reagent.

In test [1] the target is T1, 7-mer cyclic peptide CP2 (ACX7CGGGS form of CTKTDVHFC) (disulfide 2-10 (inferred)).
T1 construct: additional alanine at the N-terminus (ACX7CGGGS); peptide of phage clone CC2; C-terminal linker; source: E. coli SHuffle T5, purified; N-terminal tag cleaved with enterokinase and removed on nickel beads; not shown: His6, N-terminal, cleaved; 28 aa tag, N-terminal, cleaved
T1 peptide: ACTKTDVHFCGGGS

The target of test [2] is T2, 7-mer cyclic peptide CP4 (ACX7CGGGS form of CIHSSTRAC) (disulfide 2-10 (inferred)).
T2 construct: additional alanine at the N-terminus (ACX7CGGGS); peptide of phage clone CC4; C-terminal linker; source: E. coli SHuffle T5, purified; N-terminal tag cleaved with enterokinase and removed on nickel beads; not shown: His6, N-terminal, cleaved; 28 aa tag, N-terminal, cleaved
T2 peptide: ACIHSSTRACGGGS

The target in test [3] is T3, 7-mer cyclic peptide CP6 (ACX7CGGGS form of CMQTQRAHC) (disulfide 2-10 (inferred)).
T3 construct: additional alanine at the N-terminus (ACX7CGGGS); peptide of phage clone CC6; C-terminal linker; source: E. coli SHuffle T5, purified; N-terminal tag cleaved with enterokinase and removed on nickel beads; not shown: His6, N-terminal, cleaved; 28 aa tag, N-terminal, cleaved
T3 peptide: ACMQTQRAHCGGGS

In test [4] the target is T4, 7-mer cyclic peptide CP7 (ACX7CGGGS form of CTNANHYFC) (disulfide 2-10 (inferred)).
T4 construct: additional alanine at the N-terminus (ACX7CGGGS); peptide of phage clone CC7; C-terminal linker; source: E. coli SHuffle T5, purified; N-terminal tag cleaved with enterokinase and removed on nickel beads; not shown: His6, N-terminal, cleaved; 28 aa tag, N-terminal, cleaved
T4 peptide: ACTNANHYFCGGGS

The target of test [5] is T5, 7-mer cyclic peptide CP12 (ACX7CGGGS form of CTYENHRTC) (disulfide 2-10 (inferred)).
T5 construct: additional alanine at the N-terminus (ACX7CGGGS); peptide of phage clone CC12; C-terminal linker; source: E. coli SHuffle T5, purified; N-terminal tag cleaved with enterokinase and removed on nickel beads; not shown: His6, N-terminal, cleaved; 28 aa tag, N-terminal, cleaved
T5 peptide: ACTYENHRTCGGGS

Test [6] addresses T6, 7-mer cyclic peptide CP15 (ACX7CGGGS form of CDPRHSKFC) (disulfide 2-10 (inferred)).
T6 construct: additional alanine at the N-terminus (ACX7CGGGS); peptide of phage clone CC15; C-terminal linker; source: E. coli SHuffle T5, purified; N-terminal tag cleaved with enterokinase and removed on nickel beads; not shown: His6, N-terminal, cleaved; 28 aa tag, N-terminal, cleaved
T6 peptide: ACDPRHSKFCGGGS

The target of test [7] is T7, 7-mer cyclic peptide CP16 (ACX7CGGGS form of CLAQSHPLC) (disulfide 2-10 (inferred)).
T7 construct: additional alanine at the N-terminus (ACX7CGGGS); peptide of phage clone CC16; C-terminal linker; also called C16; source: E. coli SHuffle T5, purified; N-terminal tag cleaved with enterokinase and removed on nickel beads; not shown: His6, N-terminal, cleaved; 28 aa tag, N-terminal, cleaved
T7 peptide: ACLAQSHPLCGGGS

Test [8] has as its target T8, 12-mer linear peptide LP3 (X12GGGS form of SGVYKVAYDWQH).
T8 construct: peptide of phage clone LC3; C-terminal linker; source: E. coli SHuffle T5, purified; N-terminal tag cleaved with enterokinase and removed on nickel beads; not shown: His6, N-terminal, cleaved; 28 aa tag, N-terminal, cleaved
T8 peptide: SGVYKVAYDWQHGGGS

Positions of bridges follow the written chain, without caps; N, C: chain ends. No end group written: not given here.

B1: recombinant domain III (DIII) of the envelope (E) glycoprotein of West Nile virus (domain or fragment)
chain: GTTYGVCSKAFKFLGTPADTGHGTVVLELQYTGTDGPCKVPISSVASLNDLTPVGRLVTVNPFVSVATANAKVLIELEPPFGDSYIVVGRGEQQINHHWHK
As for B1, the A450 in test [1], in test [2], in test [3], in test [4], in test [5] and in test [6] was above 1.9 in each case. Moreover, the A450 in test [7] is above 1.9; in test [8], 2.56.
